Data: patent US11278600B2, “Human alpha-galactosidase variants” (Codexis, Inc., priority 2014, dated 2022)
Residue numbers refer to the chain shown, from its start.

What was measured:
Assay type in all cases: biochemical
[1] = HTP-analysis of yeast culture supernatants, no challenge (MUGal hydrolysis); conditions: activity of the variant/activity of Rd7BB (SEQ ID NO: 44)
In short: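 GLA variants were expressed in INVSc1 yeast grown in SD-Ura broth with glucose at 30° C., and culture supernatants were collected after 66-84 h. Supernatant was mixed with McIlvaine buffer pH 4.8 and MUGal (2 mM stock) in 50 mM citrate, 200 mM KCl, pH 4.6, incubated at 37° C. for 30-180 minutes, then quenched with sodium carbonate.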

[2] = HTP-analysis of supernatants pretreated with acid (MUGal hydrolysis); conditions: activity of the variant/activity of Rd7BB (SEQ ID NO: 44); challenge at pH 3.5
In short: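 Fluorescence of MUGal hydrolysis (Ex. 355 nm, Em. 448 nm) is read after sodium carbonate quench. The enzyme source is INVSc1 yeast culture supernatant, first exposed to pH 3.3-4.3 McIlvaine buffer at 37° C. for 1-3 h, then reacted at pH 4.8 for 30-180 minutes.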

[3] = HTP-analysis of supernatants pretreated with base (MUGal hydrolysis); conditions: activity of the variant/activity of Rd7BB (SEQ ID NO: 44); challenge at pH 7.5
In short: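 GLA variants were secreted by transformed INVSc1 yeast grown 66-84 h at 30° C. Supernatants were exposed to neutral-to-basic buffers (pH 7.0-9.7) at 37° C for 1-18 h, then assayed with MUGal in acidic citrate/McIlvaine buffer, with fluorescence read after quenching.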

B1: 676 (protein)
chain: LDNGLARTPTMGWLHWERFMCNLDCQEEPDSCISEKLFEEMAERMVTEGWKDAGYEYLCIDDCWMAPQRDSEGRLQADPQRFPHGIRQLANHVHSKGLKLGIYADVGNKTCAGFPGSFGYYDIDAQTFADWGVDLLKFDGCYCDSLENLADGYKHMSLALNRTGRPIVYSCEWPLYMWPFQKPNYTEIRQYCNHWRNFADIDDSWASIKSILDWTSRNQERIVDVAGPGGWNDPDMLVIGNFGLSWDQQVTQMALWAIMAAPLFMSNDLRAISPQAKALLQDKDVIAINQDPLGKQGYQLRKGDNFEVWERPLSGDAWAVAIINRQEIGGPRSYTIPVASLGKGVACNPACFITQLLPVKRQLGFYNATSRLKSHINPTGTVLLQLENTMQTSLKDLL
modifications: Synthetic Polypeptide sequence of Variant No. 676 of mature Human GLA
[1]
  Relative Activity of GLA Variants After No Challenge (NC): + (>0.5 to 1.5 relative activity over Rd7BB (SEQ ID NO: 44))
[2]
  Relative Activity of GLA Variants After Challenge at pH 3.5: + (>0.5 to 1.5 relative activity over Rd7BB (SEQ ID NO: 44))
[3]
  Relative Activity of GLA Variants After Challenge at pH 7.5: + (>0.5 to 1.5 relative activity over Rd7BB (SEQ ID NO: 44))

B2: 683 (protein)
chain: B1 chain with E43D, W246P, M253W, S273D
modifications: Synthetic Polypeptide sequence of Variant No. 683 of mature Human GLA
[1]
  Relative Activity of GLA Variants After No Challenge (NC): + (>0.5 to 1.5 relative activity over Rd7BB (SEQ ID NO: 44))
[2]
  Relative Activity of GLA Variants After Challenge at pH 3.5: + (>0.5 to 1.5 relative activity over Rd7BB (SEQ ID NO: 44))
[3]
  Relative Activity of GLA Variants After Challenge at pH 7.5: − (<0.5 relative activity to Rd7BB (SEQ ID NO: 44))

B3: 687 (protein)
chain: B1 chain with E39M, Q290R
modifications: Synthetic Polypeptide sequence of Variant No. 687 of mature Human GLA
[1]
  Relative Activity of GLA Variants After No Challenge (NC): + (>0.5 to 1.5 relative activity over Rd7BB (SEQ ID NO: 44))
[2]
  Relative Activity of GLA Variants After Challenge at pH 3.5: − (<0.5 relative activity to Rd7BB (SEQ ID NO: 44))
[3]
  Relative Activity of GLA Variants After Challenge at pH 7.5: − (<0.5 relative activity to Rd7BB (SEQ ID NO: 44))

B4: 685 (protein)
chain: B1 chain with E39M, E43D, M253W, A257G, N305L
modifications: Synthetic Polypeptide sequence of Variant No. 685 of mature Human GLA
[1]
  Relative Activity of GLA Variants After No Challenge (NC): + (>0.5 to 1.5 relative activity over Rd7BB (SEQ ID NO: 44))
[2]
  Relative Activity of GLA Variants After Challenge at pH 3.5: − (<0.5 relative activity to Rd7BB (SEQ ID NO: 44))
[3]
  Relative Activity of GLA Variants After Challenge at pH 7.5: − (<0.5 relative activity to Rd7BB (SEQ ID NO: 44))

B5: 677 (protein)
chain: B1 chain with E39M, M253W, S273D, P274S, K277R, A368W
modifications: Synthetic Polypeptide sequence of Variant No. 677 of mature Human GLA
[1]
  Relative Activity of GLA Variants After No Challenge (NC): + (>0.5 to 1.5 relative activity over Rd7BB (SEQ ID NO: 44))
[2]
  Relative Activity of GLA Variants After Challenge at pH 3.5: + (>0.5 to 1.5 relative activity over Rd7BB (SEQ ID NO: 44))
[3]
  Relative Activity of GLA Variants After Challenge at pH 7.5: − (<0.5 relative activity to Rd7BB (SEQ ID NO: 44))

B6: 682 (protein)
chain: B1 chain with E39M, D316Y, A368W
modifications: Synthetic Polypeptide sequence of Variant No. 682 of mature Human GLA
[1]
  Relative Activity of GLA Variants After No Challenge (NC): + (>0.5 to 1.5 relative activity over Rd7BB (SEQ ID NO: 44))
[2]
  Relative Activity of GLA Variants After Challenge at pH 3.5: + (>0.5 to 1.5 relative activity over Rd7BB (SEQ ID NO: 44))
[3]
  Relative Activity of GLA Variants After Challenge at pH 7.5: + (>0.5 to 1.5 relative activity over Rd7BB (SEQ ID NO: 44))

B7: 641 (protein)
chain: B1 chain with T10P, S266P, A368W
modifications: Synthetic Polypeptide sequence of Variant No. 641 of mature Human GLA
[1]
  Relative Activity of GLA Variants After No Challenge (NC): − (<0.5 relative activity to Rd7BB (SEQ ID NO: 44))
[2]
  Relative Activity of GLA Variants After Challenge at pH 3.5: − (<0.5 relative activity to Rd7BB (SEQ ID NO: 44))
[3]
  Relative Activity of GLA Variants After Challenge at pH 7.5: − (<0.5 relative activity to Rd7BB (SEQ ID NO: 44))

B8: 679 (protein)
chain: B1 chain with T10P, N305L, A368W
modifications: Synthetic Polypeptide sequence of Variant No. 679 of mature Human GLA
[1]
  Relative Activity of GLA Variants After No Challenge (NC): + (>0.5 to 1.5 relative activity over Rd7BB (SEQ ID NO: 44))
[2]
  Relative Activity of GLA Variants After Challenge at pH 3.5: + (>0.5 to 1.5 relative activity over Rd7BB (SEQ ID NO: 44))
[3]
  Relative Activity of GLA Variants After Challenge at pH 7.5: + (>0.5 to 1.5 relative activity over Rd7BB (SEQ ID NO: 44))

B9: 680 (protein)
chain: B1 chain with T10P, A368W
modifications: Synthetic Polypeptide sequence of Variant No. 680 of mature Human GLA
[1]
  Relative Activity of GLA Variants After No Challenge (NC): + (>0.5 to 1.5 relative activity over Rd7BB (SEQ ID NO: 44))
[2]
  Relative Activity of GLA Variants After Challenge at pH 3.5: + (>0.5 to 1.5 relative activity over Rd7BB (SEQ ID NO: 44))
[3]
  Relative Activity of GLA Variants After Challenge at pH 7.5: + (>0.5 to 1.5 relative activity over Rd7BB (SEQ ID NO: 44))

B10: 681 (protein)
chain: B1 chain with R7P, E39M, A368W
modifications: Synthetic Polypeptide sequence of Variant No. 681 of mature Human GLA
[1]
  Relative Activity of GLA Variants After No Challenge (NC): − (<0.5 relative activity to Rd7BB (SEQ ID NO: 44))
[2]
  Relative Activity of GLA Variants After Challenge at pH 3.5: − (<0.5 relative activity to Rd7BB (SEQ ID NO: 44))
[3]
  Relative Activity of GLA Variants After Challenge at pH 7.5: − (<0.5 relative activity to Rd7BB (SEQ ID NO: 44))

B11: 684 (protein)
chain: B1 chain with E39M
modifications: Synthetic Polypeptide sequence of Variant No. 684 of mature Human GLA
[1]
  Relative Activity of GLA Variants After No Challenge (NC): + (>0.5 to 1.5 relative activity over Rd7BB (SEQ ID NO: 44))
[2]
  Relative Activity of GLA Variants After Challenge at pH 3.5: + (>0.5 to 1.5 relative activity over Rd7BB (SEQ ID NO: 44))
[3]
  Relative Activity of GLA Variants After Challenge at pH 7.5: + (>0.5 to 1.5 relative activity over Rd7BB (SEQ ID NO: 44))

B12: 678 (protein)
chain: B1 chain with E39M, M253W, A257G, K277R, Q281L, A319D, A368W
modifications: Synthetic Polypeptide sequence of Variant No. 678 of mature Human GLA
[1]
  Relative Activity of GLA Variants After No Challenge (NC): − (<0.5 relative activity to Rd7BB (SEQ ID NO: 44))
[2]
  Relative Activity of GLA Variants After Challenge at pH 3.5: − (<0.5 relative activity to Rd7BB (SEQ ID NO: 44))
[3]
  Relative Activity of GLA Variants After Challenge at pH 7.5: − (<0.5 relative activity to Rd7BB (SEQ ID NO: 44))

B13: 640 (protein)
chain: B1 chain with T10P, E43D, A368W
modifications: Synthetic Polypeptide sequence of Variant No. 640 of mature Human GLA
[1]
  Relative Activity of GLA Variants After No Challenge (NC): + (>0.5 to 1.5 relative activity over Rd7BB (SEQ ID NO: 44))
[2]
  Relative Activity of GLA Variants After Challenge at pH 3.5: + (>0.5 to 1.5 relative activity over Rd7BB (SEQ ID NO: 44))
[3]
  Relative Activity of GLA Variants After Challenge at pH 7.5: + (>0.5 to 1.5 relative activity over Rd7BB (SEQ ID NO: 44))
